Assay results taken from the DeepSol protein solubility set.

assay: soluble on expression in E. coli; label from the status in PepcDB or PDB records

Soluble on expression in E. coli, not soluble:
MAHHHHHHMVALEREYILGSFCELRIITSLSSTQLSKVTLRKPVEDEDTSTAERAEVFGTELIPGVPVHLPPGRSLSIFTSTGCTLLLVAAPTVLQRCYATSLGATWVRSLLDFHSHLERARVEARGRDDVGPRVLFVSDRHHCGASTYVRWLSNFAVRLGYHPLLLDGVLDTPAFAFPGSVALFHAQHCMDIEEEMNLTPGLYAQVGQSRVANPRLYQHWVQQLLPSGMEKMARSERCRVGGLFFDFGVVEPHAVEQAEAAAAAAVPSVDPTASASSAPAALGSDKSHTNPLDTLLDTIVAADIDHVCVVGSSWLRWKLVQRAWERFGGEGSMSIVQAMLDPRWNVPPEVDCGGGQHFKIFLLDSVELVRSVPVPLWNRQRWLQYFFGTPTSPVKPTLITLEASQVRVATVGAAAMDAMSTLLPMMDSEDVDRQKADVAAVSFITLQDVALKDRIVAISTATEYERSPDGELHRLPFSVFERRIRQSTVLGFALVESVTPERLTLLVSGCPLDKELGLCFLLTEEVLKS
MGSDKIHHHHHHVFAGFDYGSANCAMAVCEGDSVRLLPIGDSGGQYLMSVVYALDVSFITEAVCQRLPDNQARALVQKRGAELARARRMRQELDLTATDDTVFIGEAALKAYLDTPEEGFFVRSPKSFLGATGLRPEQVALFEDIVTLMMLEVKGRADALLQNPVTHAVIGRPVNFQGIGGEEANIQAQSILQIAAMRAGFTQVSFLFEPLAAAFDFESSLEADKRVLVVDVGGGTTDCSLVTMGPNKRSQTERSEDCLGHSGQRIGGNDLDIALAMECLMPHYGLGDMLSTGKPMPRQMFWQAVAINDVGAQRDFFSLSYATAIKELRKDAINPDALDRLARLRRDQQHCQLVKLAELAKIDLSGEELTQVEHPDGAHTSVAADAFGLAIAPLVQRIGELMRAAVGDESSPDLIYVTGGSSRCPQVASSIAAVYPGVEVVQGDSFGSVTAGLARRAALEFA
MAEEQQNSDQSNGGNVIPTPEEVATFLHKTVEEGGWEKCWEEEITPWDQGRATPLIVHLVDTSSLPLGRALVPGCGGGHDVVAMASPERFVVGLDISESALAKANETYGSSPKAEYFSFVKEDVFTWRPTELFDLIFDYVFFCAIEPEMRPAWAKSMYELLKPDGELITLMYPITDHVGGPPYKVDVSTFEEVLVPIGFKAVSVEENPHAIPTRKGKEKLGRWKKIN
YIKVPVLRLKPSEIHINLKLLKKTADYSSVSALQQTMLYLGRLLVQSGVNTLGVDAVAAFNAASIIDSYVLAPGSSLASSVTTFSAQNRGGGKYDRIPRG
MGSDKIHHHHHHMLLHIPNVLNAEQLRIVRERLDTAGDAWVDGRATAGYQGAPVKRNQQIAEHTPIARELGDVILASIERNPLFISSVLPNQVYPPLFNRYEGGMQFGSHVDGAVRVLPNGVKLRTDVSVTLFISDPADYDGGELVIEDTYGVQQVKLPAGDMIVYPATSLHQVTPVTRGVRVASFFWVQSLVRSDTQRAMLFDMDTAIQRLNATNADDAARRSLVGIYHNLLRTWSEP
MGSDKIHHHHHHMIQIKRGKIVGFNERVGRAFHPAQVAEPAQHAPHQRRLARTEVAFQIEGHAGRQAGRKPRAERKRGGLVGKVATRRRGIIRGMHEQDSPRDFGRLAAQIKQWGRELGFAAIGITDADLSAAEAGLHTWLDKGFHGEMDYMAAHGTKRSRPAELVPGTLRIISARLDYFPPDAVDPDTILATPDAAYVSRYALGRDYHKVLRQRLQTLAERIGAAAGEHHFRVFSDSAPVMEVELATRAGLGWRGKHTLLLNRHHGSWFFLGEIYSDLPLPVDAPEAEHCGTCHACLDACPTQAIVAPYSVDARRCISYLTIELKGSIPLELRSLIGNRIYGCDDCQLVCPWNRFAGTAAVPDFAVRNGLDSAQLVDLFAWSEADFNDRLAGSPIRRIGHERWLRNIAVALGNARPAPAIEAALGTRLDHPSAMVREHVAWALARQQER
MGSDKIHHHHHHMTLVASSCTDVLDQMPTTEDTSKEVYADAANYKKVLAKIYASYVLAGQGQGGDNGDLKSINKQDFSRGYFNLQEAATDEVANTWLSGNNLSDLTYISWDAKDSWVSDSYYWLFFNIALCNEFLRHCSDEEIARFSEAEQTEIRTFRSEARFMRSFSYWMVLDLYRQGPKVDENTPVIGYIPEAYDGIGMFDFIESELKELVAEGVSSALPATNEYGRASKPVAWALLARLYLNSAIYRGNVDTKYYTECITACKQVISNPAFYLEPEYAKLFNADNHKRTHEILFAMVCDATTSVTWGGGTYIICGSCGNSSTQDPAKYGLSNGWGMFRARGEMTAKFGDIATTKDSRAMFYTDGQAQFFTGAIDNQAEGYFFEKFSNLTDEGVAASNSAATGCSTDYPLLRLADIYLMAAEAQLRGGTGLSRAEALELVNQVRLRAYNQDESGKISDSDFTLDFILDERARELYLESVRRTDLIRFNKFVSADYIWQWKGGVLDGRAVNKKYNIYPIPDTDLTANPNLHNPLY
MIAYRSNQGVTRQRQQTKVFKLVSTYDKVAVKNAIRAAYRQVFERDLEPYIINSEFTALESKLSNNEINVKEFIEGLGTSELYMKEFYAPYPNTKVIEMGTKHFLGRAPLNQKEIQQYNQILASQGLKAFIGAMVNGMEYLQTFGEDTVPYRRFPTLPALEHHHHHH

Soluble on expression in E. coli, soluble:
VKLAAGMGVMSDLEKKFIELEAKLVAQPAGQAMPGKSNIFANNEAWRQEMLKQDPEFFNRLANGQSPEYLWIGCADSRVPANQLLDLPAGEVFVHRNIANQCIHSDISFLSVLQYAVQYLKVKHILVCGHYGCGGAKAALGDSRLGLIDNWLRHIRDVRRMNAKYLDKCKDGDEELNRLIELNVLEQVHNVCATSIVQDAWDAGQELTVQGVVYGVGDGKLRDLGVVVNSSDDISKFYRTKSDSGALKAGNPNAPLVQVTKGGESELDSTMEKLTAELVQQTPGKLKEGANRVFVNNENWRQKMLKQDPQFFSNLAHTQTPEILWIGCADSRVPANQIINLPAGEVFVHRNIANQCIHSDMSFLSVLQYAVQYLKVKRVVVCGHYACGGCAAALGDSRLGLIDNWLRHIRDVRRHNQAELSRITDPKDSLNRLIEINVLEQMHNVCATSIVQDAWDAGQELEVQGVVYGVGDGKLRDMGVVAKANDDIGQIFRTKQ
MLKGKKILLCVTGGIAVFKAAALTSKLTQAGAIVKVMMSESAVKFVTPLTFQALSRHDVYTDTFDEKDSAVIAHIDLADWADVVLVAPATANCIGKLANGIADDMITTTLLATTAPVWIAPAMNVHMYENKIVQKNMMTLKTLGYTFIEPGEGFLACGYVAKGRLEEPEAIIARLEEAFSEQKPLQGKRILITAGPTREKIDPVRFMTNFSSGKMGYAIAEVAVNLGAEVILVSGPTALNPPLHVTTVQVESAQDMLEAVIQHYQNVDVVIKTAAVADYRPKYVHDNKMKKKNGDAVIELERTVDILKTLGEMKDKQLLIGFAAETTNVEEYATKKLREKNANMIVANDVKAQGAGFGTDTNIVTMYRKDGEVIELPLLTKKEVAREILKQIEMMLEDDRL
NDDIIVNWVNETLREAEKSSSISSFKDPKISTSLPVLDLIDAIQPGSINYDLLKTENLNDDEKLNNAKYAISMARKIGARVYALPEDLVEVNPKMVMTVFACLMGKGMKRV
MEVYIPSFRYEESDLERGYTVFKIEVLMNGRKHFVEKRYSEFHALHKKLKKCIKTPEIPSKHVRNWVPKVLEQRRQGLETYLQAVILENEELPKLFLDFLNVRHLPSLPKAESCGSFDETESEESSKLSHQPVLLFLRDPYVLPAASDFPNVVIEGVLHGIFYPHLQPR
SLLCIALALGILVKYQNSQDVSSVKPDYFIDKQEDLISLNKDHYEIGIFQENEFDNNKSVSILEQKIQEIDDLNTSLNEQNLSSVEQNLSLEQNQSLEQNFILKDTNLTQDQNLTFNEDIHLNKISKKPKLAIIIDDMANASQVRGLKALNLKLNPSFFPPDKNHSETPKLALKFDFYMVHLPLAAINYNKPELDTLNPNDSKERIFKKIKQIKKDFKDLRYINNHTGSLFTSNEEAMRKLYEVLKNQNIFFVDSKTIGNSKANKIAKELNVPYIQRDVFLDNEDDVNYVKKQLESAVKLTQKKGFVIAIGHPRKNTFKALEQSKDLLKSVDLVYLSEIYGK
